In paper PMC7851489 one finds Kd data, which are given here for 2 molecules.

In general, Kd refers to the concentration at which binding is half-saturated. A higher Kd goes with a looser complex.

The experiment concerns the target soluble extracellular domain of poliovirus receptor (sPVR). In words: BLI. For orientation: In BLI a coated tip is dipped into the sample, and binding shifts an interference pattern.

For the molecule “mouse TIGIT protein (from UniProt P86176 29-148) (receptor)”, the Kd came out at 0.033 µM.

B1: mouse CD226 protein (receptor)
chain: EETLWDTTVRLSETMTLECVYPLTHNLTQVEWTKNTGTKTVSIAVYNPNHNMHIESNYLHRVHFLNSTVGFRNMSLSFYNASEADIGIYSCLFHAFPNGPWEKKIKVVWSDSFEIAAPSDSYLSAEPGQDVTLTCQLPRTWPVQQVIWEKVQPHQVDILASCNLSQETRYTSKYLRQTRSNCSQGSMKSILIIPNAMAADSGLYRCRSEAITGKNKSFVIRLIITDGGTNKHFILP
B1: the Kd is 6.13 µM.
